Patent US20210263001A1, “IMMOBILIZED ENZYMES AND MICROSOMES ON MAGNETIC SCAFFOLDS” (ZYMtronix Catalytic Systems, Inc., priority 2018, published 2021)

Target: T1, UGT1A6 (Homo sapiens, UniProt P19224)
T1 construct: purchased Corning 456416
T1 sequence (P19224 27-532): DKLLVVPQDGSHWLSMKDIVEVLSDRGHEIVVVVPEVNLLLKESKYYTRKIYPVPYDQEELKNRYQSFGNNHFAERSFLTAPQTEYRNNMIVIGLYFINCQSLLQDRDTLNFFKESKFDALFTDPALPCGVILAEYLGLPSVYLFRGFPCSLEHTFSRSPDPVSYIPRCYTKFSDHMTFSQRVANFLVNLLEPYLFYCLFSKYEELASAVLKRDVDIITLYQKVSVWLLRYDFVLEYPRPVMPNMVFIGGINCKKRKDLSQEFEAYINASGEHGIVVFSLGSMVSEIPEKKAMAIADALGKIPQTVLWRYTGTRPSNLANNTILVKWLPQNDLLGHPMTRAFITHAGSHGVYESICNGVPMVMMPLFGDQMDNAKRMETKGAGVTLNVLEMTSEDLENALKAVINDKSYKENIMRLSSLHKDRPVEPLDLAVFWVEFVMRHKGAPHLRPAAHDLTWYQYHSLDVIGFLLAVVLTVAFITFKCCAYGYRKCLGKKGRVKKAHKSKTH
Assay: Activity of UGT1A6 immobilized on magnetite powder, BioVision fluorometric UGT activity assay (Example 10)
Type: biochemical
Conditions: 2 hours, 37° C., 500 μl reaction
Description: The UGT1A6 stock (5 mg/mL) was rapidly thawed in a […] and diluted in cold 50 mM Tris pH 7.0 to a final concentration of 25 μg/ml. 500 μl of UGT1A6 solution was added to 5 mg of magnetite powder and incubated for 1 hour at 4° C. with shaking. The immobilization yield was quantified by the Bradford method (Bradford reagent: Quick Start™ Bradford 1× Dye Reagent #5000205 from BioRad) by comparing it to UGT1A6 enzyme standards.
A fluorometric assay (BioVision UGT Activity Assay/Ligand Screening Kit, Cat #K692) was used to measure the activity of the free and immobilized UGT1A6. The assay utilizes a highly fluorescent UGT substrate and measures UGT activity by tracking the drop in fluorescence emission as the substrate is converted into a non-fluorescent glucuronide. UGT specific activity is calculated by comparing the fluorescence loss versus a control reaction performed in the absence of the required cofactor UDPGA. Duplicate reactions were performed in 0.5 dram glass vials (VWR® Vials, Borosilicate Glass, with Phenolic Screw Cap) with 500 μl reaction volumes at 37° C. with shaking for 2 hours. UGT1A6 reactions contained BioVision UGT Assay buffer with Alamethicin, BioVision UGT subtrate and the UDPGA cofactor. […] The product was detected by fluorescence at Ex/Em=415/502 nm and quantitated by comparing the drop in fluorescence to a standard curve of UGT substrate fluorescence.

B1: free UGT: Non-immobilized Corning Supersomes Human UGT1A6 enzyme (protein, UniProt P19224 27-532, looked up)
UDP-glucuronosyltransferase …: T1 sequence (P19224 27-532)
modifications: Supersomes microsomal preparation
notes: Non-immobilized Corning Supersomes Human UGT1A6 enzyme
  BioVision UGT Activity Assay substrate consumed (average): 0.58 ± 0.39 nmol
